Measured values from paper PMC10258763.

Target: modifying region of human fatty acid synthase (hFASN) isolated by TEV cleavage of the engineered full-length protein (human) (UniProt P49327)
Assay: cryo-EM structure; hFASN modifying region after TEV cleavage, 0.8 mg/mL, 1 mM NADPH, 1 mM DTT; also with 13.75 µM Denifanstat; plunge-frozen on holey gold grids, Titan Krios

Chain of modifying region of human fatty acid synthase (hFASN) isolated by TEV cleavage of the engineered full-length protein (P49327 855-2511, change not shown): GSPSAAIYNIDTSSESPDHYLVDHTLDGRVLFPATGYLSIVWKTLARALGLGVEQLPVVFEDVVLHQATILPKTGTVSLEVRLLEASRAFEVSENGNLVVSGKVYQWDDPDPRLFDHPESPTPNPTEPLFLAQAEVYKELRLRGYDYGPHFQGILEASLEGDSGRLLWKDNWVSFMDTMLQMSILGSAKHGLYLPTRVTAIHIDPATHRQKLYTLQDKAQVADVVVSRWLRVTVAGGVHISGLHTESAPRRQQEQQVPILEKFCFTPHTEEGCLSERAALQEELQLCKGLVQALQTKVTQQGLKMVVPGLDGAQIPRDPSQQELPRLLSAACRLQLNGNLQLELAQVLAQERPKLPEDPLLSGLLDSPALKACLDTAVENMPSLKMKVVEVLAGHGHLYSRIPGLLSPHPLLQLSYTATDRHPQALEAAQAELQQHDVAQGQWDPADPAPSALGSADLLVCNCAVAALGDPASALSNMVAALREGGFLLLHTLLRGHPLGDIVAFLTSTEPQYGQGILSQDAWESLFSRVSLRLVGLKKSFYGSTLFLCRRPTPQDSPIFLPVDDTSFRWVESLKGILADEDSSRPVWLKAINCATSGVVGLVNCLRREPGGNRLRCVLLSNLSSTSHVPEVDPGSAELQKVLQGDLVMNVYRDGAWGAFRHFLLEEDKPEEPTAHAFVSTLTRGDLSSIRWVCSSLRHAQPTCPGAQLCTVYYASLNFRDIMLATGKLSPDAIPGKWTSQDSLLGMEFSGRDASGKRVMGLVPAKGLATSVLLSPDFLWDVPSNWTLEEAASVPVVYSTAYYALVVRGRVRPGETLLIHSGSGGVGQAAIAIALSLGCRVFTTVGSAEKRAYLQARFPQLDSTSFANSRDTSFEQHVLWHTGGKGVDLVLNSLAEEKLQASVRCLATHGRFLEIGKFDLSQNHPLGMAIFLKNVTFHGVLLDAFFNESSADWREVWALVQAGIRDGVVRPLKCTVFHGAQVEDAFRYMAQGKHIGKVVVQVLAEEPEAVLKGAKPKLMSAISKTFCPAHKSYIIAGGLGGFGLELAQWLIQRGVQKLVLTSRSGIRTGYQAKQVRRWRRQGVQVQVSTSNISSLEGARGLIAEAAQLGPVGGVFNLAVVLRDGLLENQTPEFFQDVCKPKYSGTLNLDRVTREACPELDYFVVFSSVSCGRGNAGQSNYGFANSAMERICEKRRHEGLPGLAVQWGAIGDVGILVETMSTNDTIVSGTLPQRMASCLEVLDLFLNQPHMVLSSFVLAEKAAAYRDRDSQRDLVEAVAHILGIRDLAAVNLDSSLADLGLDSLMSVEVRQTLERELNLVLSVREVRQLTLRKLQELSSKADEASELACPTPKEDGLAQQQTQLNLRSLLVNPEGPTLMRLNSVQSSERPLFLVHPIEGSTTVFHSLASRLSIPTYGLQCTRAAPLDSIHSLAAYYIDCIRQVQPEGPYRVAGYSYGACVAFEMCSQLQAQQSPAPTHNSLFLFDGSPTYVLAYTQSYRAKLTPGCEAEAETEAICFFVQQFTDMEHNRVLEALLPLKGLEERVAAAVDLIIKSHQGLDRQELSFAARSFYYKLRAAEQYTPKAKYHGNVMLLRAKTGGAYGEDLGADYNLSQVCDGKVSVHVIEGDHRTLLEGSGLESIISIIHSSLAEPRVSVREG

modifying region of human fatty acid synthase (hFASN) isolated by TEV cleavage of the engineered full-length protein (from UniProt P49327 855-2511) (domain or fragment)
stoichiometry N: 2
